Paper PMC13245411

Columns and labels:
Assay in all cases: co-IP (anti-FLAG) in HEK293T cells, band intensity quantified
Conditions in all cases: parent: est. 1.0; read off a plot
human HA-tagged REDIC1 = human HA-tagged REDIC1 (UniProt Q86WS4)
human HA-tagged M1AP = human HA-tagged M1AP (UniProt Q8TC57)
mouse HA-tagged REDIC1 = mouse HA-tagged REDIC1 (UniProt A0A087WRU1)
mouse HA-tagged M1AP = mouse HA-tagged M1AP (UniProt Q9Z0E1)
Sequence of UniProt Q9Z0E1 (Q9Z0E1 whole entry): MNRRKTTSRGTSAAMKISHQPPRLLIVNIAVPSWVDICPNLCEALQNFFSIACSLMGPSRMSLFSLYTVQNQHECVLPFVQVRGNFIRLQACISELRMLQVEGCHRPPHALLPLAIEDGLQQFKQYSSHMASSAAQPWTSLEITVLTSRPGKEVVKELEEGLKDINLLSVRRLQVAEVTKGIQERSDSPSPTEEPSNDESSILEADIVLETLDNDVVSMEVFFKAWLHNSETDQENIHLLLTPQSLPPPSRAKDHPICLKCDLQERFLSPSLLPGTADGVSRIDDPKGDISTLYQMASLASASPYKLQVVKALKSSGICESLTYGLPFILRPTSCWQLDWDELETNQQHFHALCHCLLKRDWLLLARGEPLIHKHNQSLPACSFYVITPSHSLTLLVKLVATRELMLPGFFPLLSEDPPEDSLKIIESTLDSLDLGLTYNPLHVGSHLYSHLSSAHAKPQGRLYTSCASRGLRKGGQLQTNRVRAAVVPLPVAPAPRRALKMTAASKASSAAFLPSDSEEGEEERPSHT

Sequence of UniProt Q86WS4 (Q86WS4 whole entry): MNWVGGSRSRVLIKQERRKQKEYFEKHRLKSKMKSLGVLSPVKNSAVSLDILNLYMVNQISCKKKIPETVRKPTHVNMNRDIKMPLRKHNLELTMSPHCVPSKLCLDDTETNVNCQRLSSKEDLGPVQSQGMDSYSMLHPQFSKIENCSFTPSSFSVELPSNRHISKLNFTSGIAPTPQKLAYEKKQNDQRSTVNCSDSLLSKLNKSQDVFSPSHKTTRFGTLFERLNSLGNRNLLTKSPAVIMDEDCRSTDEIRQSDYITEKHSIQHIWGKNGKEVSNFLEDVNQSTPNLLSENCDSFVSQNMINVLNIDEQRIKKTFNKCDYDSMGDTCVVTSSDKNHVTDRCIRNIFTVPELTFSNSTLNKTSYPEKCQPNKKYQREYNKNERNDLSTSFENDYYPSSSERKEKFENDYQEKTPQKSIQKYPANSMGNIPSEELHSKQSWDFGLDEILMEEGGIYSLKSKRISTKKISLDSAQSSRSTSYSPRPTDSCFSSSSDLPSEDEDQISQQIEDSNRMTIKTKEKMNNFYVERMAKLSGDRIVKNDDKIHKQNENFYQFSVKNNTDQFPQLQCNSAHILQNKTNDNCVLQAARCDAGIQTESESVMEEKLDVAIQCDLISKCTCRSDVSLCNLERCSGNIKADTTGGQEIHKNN
Sequence of UniProt Q8TC57 (Q8TC57 whole entry): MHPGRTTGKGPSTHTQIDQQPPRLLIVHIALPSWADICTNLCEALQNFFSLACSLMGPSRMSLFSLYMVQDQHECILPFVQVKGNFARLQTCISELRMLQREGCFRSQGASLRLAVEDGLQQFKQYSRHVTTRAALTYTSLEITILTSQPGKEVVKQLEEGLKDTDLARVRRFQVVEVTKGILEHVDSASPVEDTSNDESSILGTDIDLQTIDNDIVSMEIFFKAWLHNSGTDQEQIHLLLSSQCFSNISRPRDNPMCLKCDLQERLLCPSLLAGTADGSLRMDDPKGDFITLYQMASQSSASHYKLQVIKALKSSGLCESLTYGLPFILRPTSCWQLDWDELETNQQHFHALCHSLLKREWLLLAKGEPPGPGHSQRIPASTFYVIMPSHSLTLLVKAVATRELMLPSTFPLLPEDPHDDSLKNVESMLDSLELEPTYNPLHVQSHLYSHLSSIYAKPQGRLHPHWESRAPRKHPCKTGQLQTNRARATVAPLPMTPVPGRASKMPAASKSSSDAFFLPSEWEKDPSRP
Sequence of UniProt A0A087WRU1 (A0A087WRU1 whole entry): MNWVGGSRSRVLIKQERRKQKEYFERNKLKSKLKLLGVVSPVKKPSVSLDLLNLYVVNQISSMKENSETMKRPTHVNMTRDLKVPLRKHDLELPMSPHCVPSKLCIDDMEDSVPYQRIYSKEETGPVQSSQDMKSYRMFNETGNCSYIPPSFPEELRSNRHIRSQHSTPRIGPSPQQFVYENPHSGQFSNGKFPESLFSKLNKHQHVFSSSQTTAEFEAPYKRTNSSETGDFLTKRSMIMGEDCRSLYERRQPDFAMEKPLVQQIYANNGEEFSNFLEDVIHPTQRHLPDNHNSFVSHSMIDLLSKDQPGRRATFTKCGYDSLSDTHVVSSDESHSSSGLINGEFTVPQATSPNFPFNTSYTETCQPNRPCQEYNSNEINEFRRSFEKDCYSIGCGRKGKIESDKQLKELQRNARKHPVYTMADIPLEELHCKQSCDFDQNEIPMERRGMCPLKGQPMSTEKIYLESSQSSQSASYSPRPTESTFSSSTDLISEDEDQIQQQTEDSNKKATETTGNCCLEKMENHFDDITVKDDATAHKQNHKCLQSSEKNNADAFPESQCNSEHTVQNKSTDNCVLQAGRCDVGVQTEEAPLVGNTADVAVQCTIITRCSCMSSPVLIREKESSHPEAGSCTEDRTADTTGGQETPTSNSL

Row | ratio to parent (human HA-tagged REDIC1) | ratio to parent (human HA-tagged M1AP) | ratio to parent (mouse HA-tagged REDIC1) | ratio to parent (mouse HA-tagged M1AP) | Substance
1 | 1 | 0.44 | – | – | human SHOC1-XPF (WT, FLAG-tagged) Q590R
2 | – | – | 1.1 | 0.5 | mouse SHOC1-XPF (WT, FLAG-tagged) Q646R
